Positions count from the first letter of the chain named.
T1: BARD1-V5 WT (BRCA1-Associated RING Domain protein 1) (UniProt Q99728 1-777)
T1 construct: BARD1 (BRCA1-Associated RING Domain protein 1), wild type; also called pcDNA6.2-BARD1-V5; source: HEK293FT, transiently co-transfected, in lysate
T1 sequence (looked up): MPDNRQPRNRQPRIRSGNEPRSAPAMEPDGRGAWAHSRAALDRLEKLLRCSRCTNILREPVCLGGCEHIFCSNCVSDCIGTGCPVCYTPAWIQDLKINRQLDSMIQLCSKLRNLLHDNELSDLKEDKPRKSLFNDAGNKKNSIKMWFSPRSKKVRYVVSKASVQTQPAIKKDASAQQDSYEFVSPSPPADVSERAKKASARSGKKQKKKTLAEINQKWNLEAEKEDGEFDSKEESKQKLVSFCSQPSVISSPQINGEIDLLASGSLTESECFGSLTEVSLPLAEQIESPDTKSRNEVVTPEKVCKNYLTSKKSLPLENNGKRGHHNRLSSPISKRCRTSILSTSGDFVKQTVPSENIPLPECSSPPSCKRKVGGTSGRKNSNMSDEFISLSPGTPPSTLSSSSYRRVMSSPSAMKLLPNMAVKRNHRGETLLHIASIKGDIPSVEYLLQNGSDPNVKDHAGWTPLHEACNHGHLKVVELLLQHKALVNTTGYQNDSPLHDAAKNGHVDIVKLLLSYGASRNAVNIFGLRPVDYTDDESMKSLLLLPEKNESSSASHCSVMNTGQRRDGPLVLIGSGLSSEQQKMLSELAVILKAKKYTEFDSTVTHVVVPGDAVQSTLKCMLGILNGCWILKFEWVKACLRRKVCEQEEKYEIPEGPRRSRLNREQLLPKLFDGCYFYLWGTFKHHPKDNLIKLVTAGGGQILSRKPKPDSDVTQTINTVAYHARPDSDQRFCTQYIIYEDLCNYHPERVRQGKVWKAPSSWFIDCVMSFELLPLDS

T2: Flag-PALB2 WT (Partner and Localiser of BRCA2) (UniProt Q86YC2 1-1186)
T2 construct: PALB2 (Partner and Localiser of BRCA2), wild type; printed both as Flag-PALB2 and as PALB2-Flag; also called PALB2-Flag; pDEST-FRT/T0-Flag-PALB2; source: HEK293FT, transiently co-transfected, in lysate
T2 sequence (looked up): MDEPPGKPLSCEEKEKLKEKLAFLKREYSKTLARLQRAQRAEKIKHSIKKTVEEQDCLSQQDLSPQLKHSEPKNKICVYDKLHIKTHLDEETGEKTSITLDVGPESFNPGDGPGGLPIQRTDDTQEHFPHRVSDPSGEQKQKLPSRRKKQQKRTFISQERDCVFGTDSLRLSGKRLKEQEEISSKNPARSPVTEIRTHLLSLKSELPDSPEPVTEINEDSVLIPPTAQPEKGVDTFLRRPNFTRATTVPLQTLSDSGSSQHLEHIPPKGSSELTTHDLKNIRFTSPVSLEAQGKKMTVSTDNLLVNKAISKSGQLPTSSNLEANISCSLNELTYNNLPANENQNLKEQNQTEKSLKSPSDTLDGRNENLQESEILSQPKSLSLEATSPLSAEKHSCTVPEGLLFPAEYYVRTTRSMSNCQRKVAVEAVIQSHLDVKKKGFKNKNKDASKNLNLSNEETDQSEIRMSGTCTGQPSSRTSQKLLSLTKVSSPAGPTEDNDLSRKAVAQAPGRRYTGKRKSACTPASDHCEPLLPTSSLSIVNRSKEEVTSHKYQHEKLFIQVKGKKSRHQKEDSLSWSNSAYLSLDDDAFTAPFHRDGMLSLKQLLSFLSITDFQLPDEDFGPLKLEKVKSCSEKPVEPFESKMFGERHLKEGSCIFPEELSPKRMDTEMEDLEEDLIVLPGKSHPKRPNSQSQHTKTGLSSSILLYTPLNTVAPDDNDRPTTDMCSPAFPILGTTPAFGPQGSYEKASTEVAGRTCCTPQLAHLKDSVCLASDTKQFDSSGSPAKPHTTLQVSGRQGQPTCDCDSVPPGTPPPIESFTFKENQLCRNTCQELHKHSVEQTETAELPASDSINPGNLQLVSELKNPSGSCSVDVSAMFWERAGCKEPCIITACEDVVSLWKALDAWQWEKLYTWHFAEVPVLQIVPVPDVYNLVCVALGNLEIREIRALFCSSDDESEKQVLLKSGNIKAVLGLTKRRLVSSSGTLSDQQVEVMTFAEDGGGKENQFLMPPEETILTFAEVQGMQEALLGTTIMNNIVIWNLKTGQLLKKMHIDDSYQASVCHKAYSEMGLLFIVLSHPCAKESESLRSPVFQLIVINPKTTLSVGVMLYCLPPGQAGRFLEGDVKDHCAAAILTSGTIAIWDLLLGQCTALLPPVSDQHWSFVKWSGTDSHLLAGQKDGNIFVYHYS

B1: mCherry-tagged wild type (WT) full-length human BRCA1 protein (natural protein, UniProt P38398 1-1863, looked up)
chain: MDLSALRVEEVQNVINAMQKILECPICLELIKEPVSTKCDHIFCKFCMLKLLNQKKGPSQCPLCKNDITKRSLQESTRFSQLVEELLKIICAFQLDTGLEYANSYNFAKKENNSPEHLKDEVSIIQSMGYRNRAKRLLQSEPENPSLQETSLSVQLSNLGTVRTLRTKQRIQPQKTSVYIELGSDSSEDTVNKATYCSVGDQELLQITPQGTRDEISLDSAKKAACEFSETDVTNTEHHQPSNNDLNTTEKRAAERHPEKYQGSSVSNLHVEPCGTNTHASSLQHENSSLLLTKDRMNVEKAEFCNKSKQPGLARSQHNRWAGSKETCNDRRTPSTEKKVDLNADPLCERKEWNKQKLPCSENPRDTEDVPWITLNSSIQKVNEWFSRSDELLGSDDSHDGESESNAKVADVLDVLNEVDEYSGSSEKIDLLASDPHEALICKSERVHSKSVESNIEDKIFGKTYRKKASLPNLSHVTENLIIGAFVTEPQIIQERPLTNKLKRKRRPTSGLHPEDFIKKADLAVQKTPEMINQGTNQTEQNGQVMNITNSGHENKTKGDSIQNEKNPNPIESLEKESAFKTKAEPISSSISNMELELNIHNSKAPKKNRLRRKSSTRHIHALELVVSRNLSPPNCTELQIDSCSSSEEIKKKKYNQMPVRHSRNLQLMEGKEPATGAKKSNKPNEQTSKRHDSDTFPELKLTNAPGSFTKCSNTSELKEFVNPSLPREEKEEKLETVKVSNNAEDPKDLMLSGERVLQTERSVESSSISLVPGTDYGTQESISLLEVSTLGKAKTEPNKCVSQCAAFENPKGLIHGCSKDNRNDTEGFKYPLGHEVNHSRETSIEMEESELDAQYLQNTFKVSKRQSFAPFSNPGNAEEECATFSAHSGSLKKQSPKVTFECEQKEENQGKNESNIKPVQTVNITAGFPVVGQKDKPVDNAKCSIKGGSRFCLSSQFRGNETGLITPNKHGLLQNPYRIPPLFPIKSFVKTKCKKNLLEENFEEHSMSPEREMGNENIPSTVSTISRNNIRENVFKEASSSNINEVGSSTNEVGSSINEIGSSDENIQAELGRNRGPKLNAMLRLGVLQPEVYKQSLPGSNCKHPEIKKQEYEEVVQTVNTDFSPYLISDNLEQPMGSSHASQVCSETPDDLLDDGEIKEDTSFAENDIKESSAVFSKSVQKGELSRSPSPFTHTHLAQGYRRGAKKLESSEENLSSEDEELPCFQHLLFGKVNNIPSQSTRHSTVATECLSKNTEENLLSLKNSLNDCSNQVILAKASQEHHLSEETKCSASLFSSQCSELEDLTANTNTQDPFLIGSSKQMRHQSESQGVGLSDKELVSDDEERGTGLEENNQEEQSMDSNLGEAASGCESETSVSEDCSGLSSQSDILTTQQRDTMQHNLIKLQQEMAELEAVLEQHGSQPSNSYPSIISDSSALEDLRNPEQSTSEKAVLTSQKSSEYPISQNPEGLSADKFEVSADSSTSKNKEPGVERSSPSKCPSLDDRWYMHSCSGSLQNRNYPSQEELIKVVDVEEQQLEESGPHDLTETSYLPRQDLEGTPYLESGISLFSDDPESDPSEDRAPESARVGNIPSSTSALKVPQLKVAESAQSPAAAHTTDTAGYNAMEESVSREKPELTASTERVNKRMSMVVSGLTPEEFMLVYKFARKHHITLTNLITEETTHVVMKTDAEFVCERTLKYFLGIAGGKWVVSYFWVTQSIKERKMLNEHDFEVRGDVVNGRNHQGPKRARESQDRKIFRGLEICCYGPFTNMPTDQLEWMVQLCGASVVKELSSFTLGTGVHPIVVVQPDAWTEDNGFHAIGQMCEAPVVTREWVLDSVALYQCQELDTYLIPQIPHSHY
notes: BRCA1, human, full-length, wild type; also called BRCA1 WT; mCherry-BRCA1; source: HEK293FT, transiently co-transfected, in lysate
B2: BRCA1 p.Lys45Gln (full-length, mCherry-tagged; benign control variant, RING domain) (natural protein, human, UniProt P38398 1-1863, looked up)
chain: B1 chain with K45Q
notes: BRCA1, human, full-length, benign control missense variant in the RING domain, introduced in the WT plasmid; Made by site-directed mutagenesis of the plasmid of m1; also called c.133A > C; source: HEK293FT, transiently co-transfected, in lysate
B3: BRCA1 p.Glu575Lys (full-length, mCherry-tagged) (natural protein, human, UniProt P38398 1-1863, looked up)
chain: B1 chain with E575K
notes: BRCA1, human, full-length, rare germline missense variant introduced in the WT plasmid; Made by site-directed mutagenesis of the plasmid of m1; also called c.1723G > A; source: HEK293FT, transiently co-transfected, in lysate
B4: BRCA1 p.Arg610Thr (full-length, mCherry-tagged) (natural protein, human, UniProt P38398 1-1863, looked up)
chain: B1 chain with R610T
notes: BRCA1, human, full-length, rare germline missense variant introduced in the WT plasmid; Made by site-directed mutagenesis of the plasmid of m1; also called c.1829G > C; source: HEK293FT, transiently co-transfected, in lysate
B5: BRCA1 p.Gly933Asp (full-length, mCherry-tagged) (natural protein, human, UniProt P38398 1-1863, looked up)
chain: B1 chain with G933D
notes: BRCA1, human, full-length, rare germline missense variant introduced in the WT plasmid; Made by site-directed mutagenesis of the plasmid of m1; also called c.2798G > A; source: HEK293FT, transiently co-transfected, in lysate
B6: BRCA1 p.Arg504Cys (full-length, mCherry-tagged) (natural protein, human, UniProt P38398 1-1863, looked up)
chain: B1 chain with R504C
notes: BRCA1, human, full-length, rare germline missense variant introduced in the WT plasmid; Made by site-directed mutagenesis of the plasmid of m1; also called c.1510C > T; source: HEK293FT, transiently co-transfected, in lysate
B7: BRCA1 p.Thr1256Ile (full-length, mCherry-tagged) (natural protein, human, UniProt P38398 1-1863, looked up)
chain: B1 chain with T1256I
notes: BRCA1, human, full-length, rare germline missense variant introduced in the WT plasmid; Made by site-directed mutagenesis of the plasmid of m1; also called c.3767C > T; source: HEK293FT, transiently co-transfected, in lysate
B8: BRCA1 p.Arg612Gly (full-length, mCherry-tagged) (natural protein, human, UniProt P38398 1-1863, looked up)
chain: B1 chain with R612G
notes: BRCA1, human, full-length, rare germline missense variant introduced in the WT plasmid; Made by site-directed mutagenesis of the plasmid of m1; also called c.1834A > G; source: HEK293FT, transiently co-transfected, in lysate

These binders were tested against T1, BARD1-V5 WT (BRCA1-Associated RING …) (assay: co-IP; HEK293FT co-transfected with BRCA1 WT or variant and BARD1-V5; 2 mg lysate protein incubated 90 min at 4 °C with V5 antibody coupled to Dynabeads Protein G; non-denaturing elution; BRCA1 in the IP detected by anti-BRCA1 blot, normalised to the anti-V5 signal, % of WT). Details: partners not purified.
With B1 the “Co-IP BARD1 (% of WT)” value was 100 % of WT.
For B2, the “Co-IP BARD1 (% of WT)” value was 76 % of WT.
B3 was tested, and the “Co-IP BARD1 (% of WT)” value was 77 % of WT.
In the case of B4, the “Co-IP BARD1 (% of WT)” value is reported as 81 % of WT.
B5 was tested, and the “Co-IP BARD1 (% of WT)” value was 73 % of WT.
In the case of B6, the “Co-IP BARD1 (% of WT)” value is reported as 63 % of WT.
B7 was tested, and the “Co-IP BARD1 (% of WT)” value was 55 % of WT.
With B8 the “Co-IP BARD1 (% of WT)” value was 71 % of WT.

The binders below were run against T2, Flag-PALB2 WT (Partner and Localiser of …) (assay: co-IP; HEK293FT co-transfected with BRCA1 WT or variant and Flag-PALB2; 2 mg lysate protein incubated 90 min at 4 °C with Flag antibody coupled to Dynabeads Protein G; non-denaturing elution; BRCA1 in the IP detected by anti-BRCA1 blot, normalised to the anti-Flag signal, % of WT). Details: partners not purified.
B3 was tested, and the “Co-IP PALB2 (% of WT)” value was 66 % of WT.
B4 was tested, and the “Co-IP PALB2 (% of WT)” value was 56 % of WT.
In the case of B5, the “Co-IP PALB2 (% of WT)” value is reported as 115 % of WT.
For B6, the “Co-IP PALB2 (% of WT)” value was 65 % of WT.
For B7, the “Co-IP PALB2 (% of WT)” value was 79 % of WT.
For B8, the “Co-IP PALB2 (% of WT)” value was 59 % of WT.

Reference: article PMC9957003, “Functional Analyses of Rare Germline Missense BRCA1 Variants Located within and outside Protein Domains with Known Functions” (Genes, 2023)
